From patent US20190300590A1 (PROTAGONIST THERAPEUTICS, published 2019)
Bridges are numbered along the chain shown (N, C = ends). [ ]: non-standard residue; d: D form. 2Nal = N[C@@H](Cc1ccc2ccccc2c1)C(=O)O; AEF = NCCOc1ccc(C[C@H](N)C(=O)O)cc1; NMeR = CN[C@@H](CCCNC(=N)N)C(=O)O; Cit = NC(=O)NCCC[C@H](N)C(=O)O; αMeL = CC(C)C[C@](C)(N)C(=O)O; NMeK = CN[C@@H](CCCCN)C(=O)O; αMeK = C[C@](N)(CCCCN)C(=O)O; Ac5c = NC1(C(=O)O)CCCC1; Abu = CC[C@H](N)C(=O)O; Dap = NC[C@H](N)C(=O)O; Aib = CC(C)(N)C(=O)O; PEG1 = NCCOCCC(=O)O; AEA = NCCOCC(=O)O; βAla = NCCC(=O)O

T1: IL-23R on human cells (IL-23R-expressing DB cells; human NK cells) (human, UniProt Q5VWK5 24-629)
T1 sequence (looked up): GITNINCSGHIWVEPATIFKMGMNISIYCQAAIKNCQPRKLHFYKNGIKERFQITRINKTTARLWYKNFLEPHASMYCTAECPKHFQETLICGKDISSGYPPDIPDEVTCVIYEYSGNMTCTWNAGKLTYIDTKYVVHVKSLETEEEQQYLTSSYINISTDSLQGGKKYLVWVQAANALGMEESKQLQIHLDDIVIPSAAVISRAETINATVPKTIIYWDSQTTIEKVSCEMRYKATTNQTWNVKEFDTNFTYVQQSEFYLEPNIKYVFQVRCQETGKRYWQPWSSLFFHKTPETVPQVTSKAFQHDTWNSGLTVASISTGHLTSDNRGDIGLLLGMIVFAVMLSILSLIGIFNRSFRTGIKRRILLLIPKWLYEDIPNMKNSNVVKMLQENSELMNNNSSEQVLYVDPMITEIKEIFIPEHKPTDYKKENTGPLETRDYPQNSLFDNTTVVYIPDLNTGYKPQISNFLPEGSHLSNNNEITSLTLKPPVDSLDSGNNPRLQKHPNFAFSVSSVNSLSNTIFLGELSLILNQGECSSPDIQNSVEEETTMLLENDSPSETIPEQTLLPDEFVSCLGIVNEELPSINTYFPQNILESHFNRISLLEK

T2: IL23R_huFC (human, UniProt Q5VWK5 24-353)
T2 sequence (looked up): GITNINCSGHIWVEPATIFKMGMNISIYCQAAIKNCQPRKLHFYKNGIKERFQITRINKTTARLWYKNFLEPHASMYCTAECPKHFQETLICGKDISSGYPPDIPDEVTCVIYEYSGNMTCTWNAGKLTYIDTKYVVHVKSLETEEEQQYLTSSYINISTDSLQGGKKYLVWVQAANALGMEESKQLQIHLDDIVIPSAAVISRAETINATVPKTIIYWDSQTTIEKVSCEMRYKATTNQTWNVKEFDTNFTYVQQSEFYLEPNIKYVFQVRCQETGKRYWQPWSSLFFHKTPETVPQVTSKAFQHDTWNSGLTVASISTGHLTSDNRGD

B1: Ac-Cyclo-[[Abu]-QTWQC]-[Phe[4-(2-aminoethoxy)]]-[2-Nal]-[α-MeLeu]-QNG-NH2 (peptide)
peptide: Ac-[Abu]QTWQC[AEF][2Nal][αMeL]QNG-NH2
modifications: thioether 1-6
B2: Ac-Cyclo-[[Abu]-QTWQC]-[Phe[4-(2-aminoethoxy)]]-[2-Nal]-[4-amino-4-carboxy-piperidine]-ENN-NH2 (peptide)
peptide: Ac-[Abu]QTWQC[AEF][2Nal][4‑amino‑4‑carboxy‑piperidine]ENN-NH2
modifications: thioether 1-6
B3: Ac-Cyclo-[[Abu]-QTWQC]-[Phe[4-(2-aminoethoxy)]]-[2-Nal]-[Cit]-[Dap]-NG-NH2 (peptide)
peptide: Ac-[Abu]QTWQC[AEF][2Nal][Cit][Dap]NG-NH2
modifications: thioether 1-6
B4: Ac-Cyclo-[[Abu]-QTWQC]-[Phe[4-(2-aminoethoxy)]]-[2-Nal]-[Acvc]-ENN-NH2 (peptide)
peptide: Ac-[Abu]QTWQC[AEF][2Nal][Ac5c]ENN-NH2
modifications: thioether 1-6
B5: Ac-CADWECYWHTFG-NH2 (peptide)
peptide: Ac-CADWECYWHTFG-NH2
modifications: disulfide 1-6 (inferred)
B6: Ac-CKDWVCYWHTFG-OH (peptide)
peptide: Ac-CKDWVCYWHTFG-OH
modifications: disulfide 1-6 (inferred)
B7: Ac-CATWVCYWHTFG-NH2 (peptide)
peptide: Ac-CATWVCYWHTFG-NH2
modifications: disulfide 1-6 (inferred)
B8: Ac-CADWVCYWKTFG-OH (peptide)
peptide: Ac-CADWVCYWKTFG-OH
modifications: disulfide 1-6 (inferred)
B9: Ac-CADWKCYWHTFG-OH (peptide)
peptide: Ac-CADWKCYWHTFG-OH
modifications: disulfide 1-6 (inferred)
B10: Ac-CADWVCYWHTKG-OH (peptide)
peptide: Ac-CADWVCYWHTKG-OH
modifications: disulfide 1-6 (inferred)
B11: Ac-CADWVCYWHKFG-OH (peptide)
peptide: Ac-CADWVCYWHKFG-OH
modifications: disulfide 1-6 (inferred)
B12: Hy-CADWVCYAHTFG-NH2 (peptide)
peptide: H-CADWVCYAHTFG-NH2
modifications: disulfide 1-6 (inferred)
B13: Ac-CADWVCYWHTF-[(D)Lys]-OH (peptide)
peptide: Ac-CADWVCYWHTF[dK]-OH
modifications: disulfide 1-6 (inferred)
B14: Ac-Cyclo-[[Abu]-QTWQC]-[Phe[4-(2-aminoethoxy)]]-[2-Nal]-[α-MeLeu]-[Lys(Ac)]-NG-NH2 (peptide)
peptide: Ac-[Abu]QTWQC[AEF][2Nal][αMeL]K(Ac)NG-NH2
modifications: thioether 1-6
B15: Ac-Cyclo-[[Abu]-QTWQC]-[Phe[4-(2-aminoethoxy)]]-[2-Nal]-[Aib]-E-[Dap(Ac)]-G-NH2 (peptide)
peptide: Ac-[Abu]QTWQC[AEF][2Nal][Aib]E[Dap](Ac)G-NH2
modifications: thioether 1-6
B16: Ac-Cyclo-[[Abu]-QTWQC]-[Phe[4-(2-aminoethoxy)]]-W-[α-MeLys]-[Lys(Ac)]-NG-NH2 (peptide)
peptide: Ac-[Abu]QTWQC[AEF]W[αMeK]K(Ac)NG-NH2
modifications: thioether 1-6
B17: Ac-Cyclo-[[Abu]-QTWQC]-[Phe[4-(2-aminoethoxy)]]-[2-Nal]-[α-MeLeu]-ENG-NH2 (peptide)
peptide: Ac-[Abu]QTWQC[AEF][2Nal][αMeL]ENG-NH2
modifications: thioether 1-6
B18: Ac-CQTWQCYW-[(D)Arg]-ENG-[AEA]-[(D)-Lys]-NH2 (peptide)
peptide: Ac-CQTWQCYW[dR]ENG[AEA][dK]-NH2
modifications: disulfide 1-6 (inferred)
B19: Ac-CRDWQCYWR-[(D)Lys]-FG-[AEP]-[(D)-Lys]-NH2 (peptide)
peptide: Ac-CRDWQCYWR[dK]FG[PEG1][dK]-NH2
modifications: disulfide 1-6
SMILES: CC(=O)N[C@H]1CSSC[C@@H](C(=O)N[C@@H](Cc2ccc(O)cc2)C(=O)N[C@@H](Cc2c[nH]c3ccccc23)C(=O)N[C@@H](CCCNC(=N)N)C(=O)N[C@H](CCCCN)C(=O)N[C@@H](Cc2ccccc2)C(=O)NCC(=O)NCCOCCC(=O)N[C@H](CCCCN)C(N)=O)NC(=O)[C@H](CCC(N)=O)NC(=O)[C@H](Cc2c[nH]c3ccccc23)NC(=O)[C@H](CC(=O)O)NC(=O)[C@H](CCCNC(=N)N)NC1=O
B20: Ac-CQTWQCYWR-[N-MeArg]-NG-[AEA]-[(D)-Lys]-NH2 (peptide)
peptide: Ac-CQTWQCYWR[NMeR]NG[AEA][dK]-NH2
modifications: disulfide 1-6
SMILES: CC(=O)N[C@H]1CSSC[C@@H](C(=O)N[C@@H](Cc2ccc(O)cc2)C(=O)N[C@@H](Cc2c[nH]c3ccccc23)C(=O)N[C@@H](CCCNC(=N)N)C(=O)N(C)[C@@H](CCCNC(=N)N)C(=O)N[C@@H](CC(N)=O)C(=O)NCC(=O)NCCOCC(=O)N[C@H](CCCCN)C(N)=O)NC(=O)[C@H](CCC(N)=O)NC(=O)[C@H](Cc2c[nH]c3ccccc23)NC(=O)[C@H]([C@@H](C)O)NC(=O)[C@H](CCC(N)=O)NC1=O
B21: Ac-CQTWQCYW-[N-MeArg]-ENG-[AEA]-[(D)-Lys]-NH2 (peptide)
peptide: Ac-CQTWQCYW[NMeR]ENG[AEA][dK]-NH2
modifications: disulfide 1-6 (inferred)
B22: Ac-CQTWQCYWR-[N-MeLys]-NG-[AEA]-[(D)-Lys]-NH2 (peptide)
peptide: Ac-CQTWQCYWR[NMeK]NG[AEA][dK]-NH2
modifications: disulfide 1-6
SMILES: CC(=O)N[C@H]1CSSC[C@@H](C(=O)N[C@@H](Cc2ccc(O)cc2)C(=O)N[C@@H](Cc2c[nH]c3ccccc23)C(=O)N[C@@H](CCCNC(=N)N)C(=O)N(C)[C@@H](CCCCN)C(=O)N[C@@H](CC(N)=O)C(=O)NCC(=O)NCCOCC(=O)N[C@H](CCCCN)C(N)=O)NC(=O)[C@H](CCC(N)=O)NC(=O)[C@H](Cc2c[nH]c3ccccc23)NC(=O)[C@H]([C@@H](C)O)NC(=O)[C@H](CCC(N)=O)NC1=O
B23: Ac-CRDWQCYW-[(D)Arg]-KFG-[AEP]-[(D)-Lys]-NH2 (peptide)
peptide: Ac-CRDWQCYW[dR]KFG[PEG1][dK]-NH2
modifications: disulfide 1-6
SMILES: CC(=O)N[C@H]1CSSC[C@@H](C(=O)N[C@@H](Cc2ccc(O)cc2)C(=O)N[C@@H](Cc2c[nH]c3ccccc23)C(=O)N[C@H](CCCNC(=N)N)C(=O)N[C@@H](CCCCN)C(=O)N[C@@H](Cc2ccccc2)C(=O)NCC(=O)NCCOCCC(=O)N[C@H](CCCCN)C(N)=O)NC(=O)[C@H](CCC(N)=O)NC(=O)[C@H](Cc2c[nH]c3ccccc23)NC(=O)[C@H](CC(=O)O)NC(=O)[C@H](CCCNC(=N)N)NC1=O
B24: Ac-CQTWQCYW-[(D)Arg]-[(D)Glu]-NG-[AEA]-[(D)Lys]-NH2 (peptide)
peptide: Ac-CQTWQCYW[dR][dE]NG[AEA][dK]-NH2
modifications: disulfide 1-6 (inferred)
B25: Ac-CQTWQCYWR-[(D)Glu]-NG-[AEA[(D)-Lys]-NH2 (peptide)
peptide: Ac-CQTWQCYWR[dE]NG[AEA][dK]-NH2
modifications: disulfide 1-6
SMILES: CC(=O)N[C@H]1CSSC[C@@H](C(=O)N[C@@H](Cc2ccc(O)cc2)C(=O)N[C@@H](Cc2c[nH]c3ccccc23)C(=O)N[C@@H](CCCNC(=N)N)C(=O)N[C@H](CCC(=O)O)C(=O)N[C@@H](CC(N)=O)C(=O)NCC(=O)NCCOCC(=O)N[C@H](CCCCN)C(N)=O)NC(=O)[C@H](CCC(N)=O)NC(=O)[C@H](Cc2c[nH]c3ccccc23)NC(=O)[C@H]([C@@H](C)O)NC(=O)[C@H](CCC(N)=O)NC1=O
B26: Ac-CRDWQCYW-[N-MeArg]-KFG-[AEP]-[(D)-Lys]-NH2 (peptide)
peptide: Ac-CRDWQCYW[NMeR]KFG[PEG1][dK]-NH2
modifications: disulfide 1-6
SMILES: CC(=O)N[C@H]1CSSC[C@@H](C(=O)N[C@@H](Cc2ccc(O)cc2)C(=O)N[C@@H](Cc2c[nH]c3ccccc23)C(=O)N(C)[C@@H](CCCNC(=N)N)C(=O)N[C@@H](CCCCN)C(=O)N[C@@H](Cc2ccccc2)C(=O)NCC(=O)NCCOCCC(=O)N[C@H](CCCCN)C(N)=O)NC(=O)[C@H](CCC(N)=O)NC(=O)[C@H](Cc2c[nH]c3ccccc23)NC(=O)[C@H](CC(=O)O)NC(=O)[C@H](CCCNC(=N)N)NC1=O
B27: Ac-CRDWQCYW-[(D)Arg]-[(D)Lys]-FG-[AEP]-[(D)-Lys]-NH2 (peptide)
peptide: Ac-CRDWQCYW[dR][dK]FG[PEG1][dK]-NH2
modifications: disulfide 1-6
SMILES: CC(=O)N[C@H]1CSSC[C@@H](C(=O)N[C@@H](Cc2ccc(O)cc2)C(=O)N[C@@H](Cc2c[nH]c3ccccc23)C(=O)N[C@H](CCCNC(=N)N)C(=O)N[C@H](CCCCN)C(=O)N[C@@H](Cc2ccccc2)C(=O)NCC(=O)NCCOCCC(=O)N[C@H](CCCCN)C(N)=O)NC(=O)[C@H](CCC(N)=O)NC(=O)[C@H](Cc2c[nH]c3ccccc23)NC(=O)[C@H](CC(=O)O)NC(=O)[C@H](CCCNC(=N)N)NC1=O
B28: Ac-CQTWQCYW-[N-MeArg]-ENG-[AEA]-[(D)-Lys]-NH2 (peptide)
peptide: Ac-CQTWQCYW[NMeR]ENG[AEA][dK]-NH2
modifications: disulfide 1-6 (inferred)
B29: Ac-Cyclo-[[Abu]-QTWQC]-[Phe[4-(2-aminoethoxy)]]-[2-Nal]-[Aib]-QN-[βAla]-NH2 (peptide)
peptide: Ac-[Abu]QTWQC[AEF][2Nal][Aib]QN[βAla]-NH2
modifications: thioether 1-6

Tests used:
[1] = target: T1, IL-23R on human cells …; assay: cell-based or functional assay
IL23R_huFC = target: T2, IL23R_huFC; assay: IL23-IL23R competitive ELISA

Binder	pStat3 HTRF IC50 [1]	IC50 (IL23R_huFC)
B1	< 10 nM	
B2	< 10 nM	
B3	< 10 nM	
B4	< 10 nM	
B5		> 1000 nM
B6		> 1000 nM
B7		> 1000 nM
B8		> 1000 nM
B9		> 1000 nM
B10		> 1000 nM
B11		> 1000 nM
B12		> 1000 nM
B13		> 1000 nM
B14	< 10 nM	
B15	< 10 nM	
B16	< 10 nM	
B17	< 10 nM	
B18		> 1000 nM
B19		> 1000 nM
B20		> 1000 nM
B21		> 1000 nM
B22		> 1000 nM
B23		> 1000 nM
B24		> 1000 nM
B25		> 1000 nM
B26		> 1000 nM
B27		> 1000 nM
B28		> 1000 nM
B29	< 10 nM	
